B1: Kinesin-like protein KIF2C (Homo sapiens), Q99661 (parent)
chain: MAMDSSLQARLFPGLAIKIQRSNGLIHSANVRTVNLEKSCVSVEWAEGGATKGKEIDFDDVAAINPELLQLLPLHPKDNLPLQENVTIQKQKRRSVNSKIPAPKESLRSRSTRMSTVSELRITAQENDMEVELPAAANSRKQFSVPPAPTRPSCPAVAEIPLRMVSEEMEEQVHSIRGSSSANPVNSVRRKSCLVKEVEKMKNKREEKKAQNSEMRMKRAQEYDSSFPNWEFARMIKEFRATLECHPLTMTDPIEEHRICVCVRKRPLNKQELAKKEIDVISIPSKCLLLVHEPKLKVDLTKYLENQAFCFDFAFDETASNEVVYRFTARPLVQTIFEGGKATCFAYGQTGSGKTHTMGGDLSGKAQNASKGIYAMASRDVFLLKNQPCYRKLGLEVYVTFFEIYNGKLFDLLNKKAKLRVLEDGKQQVQVVGLQEHLVNSADDVIKMIDMGSACRTSGQTFANSNSSRSHACFQIILRAKGRMHGKFSLVDLAGNERGADTSSADRQTRMEGAEINKSLLALKECIRALGQNKAHTPFRESKLTQVLRDSFIGENSRTCMIATISPGISSCEYTLNTLRYADRVKELSPHSGPSGEQLIQMETEEMEACSNGALIPGNLSKEEEELSSQMSSFNEAMTQIRELEEKAMEELKEIIQQGPDWLELSEMTEQPDYDLETFVNKAESALAQQAKHFSALRDVIKALRLAMQLEEQASRQISSKKRPQ

Variants of: B1
Details: with mare1_human MAPRE1, Q15691
Chain of mare1_human MAPRE1, Q15691 (Q15691 whole entry): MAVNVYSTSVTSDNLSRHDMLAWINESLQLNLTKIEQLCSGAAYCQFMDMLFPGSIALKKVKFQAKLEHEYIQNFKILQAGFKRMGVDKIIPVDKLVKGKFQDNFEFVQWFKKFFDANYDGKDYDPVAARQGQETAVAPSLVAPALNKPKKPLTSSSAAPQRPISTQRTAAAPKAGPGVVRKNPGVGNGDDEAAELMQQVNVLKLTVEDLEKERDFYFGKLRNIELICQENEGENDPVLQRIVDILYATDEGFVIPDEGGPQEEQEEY

Row | effect of a mutation on the interaction | Variant
1 | decreasing interaction | I100N;P101N

— IntAct's records for PubMed 19632184
